Assay results as given in publication PMC10680189.

Columns and labels:
[1] = molecular target: Toll-like receptor 4 (TLR-4) of Caco-2 cells (human (endogenous in Caco-2)) (UniProt O00206)
[2] = molecular target: Toll-like receptor 4 (TLR-4) of Caco-2 cells (human (endogenous in Caco-2)) (UniProt O00206); remark: listed apart in the source

Sequence of UniProt O00206 (O00206 24-839): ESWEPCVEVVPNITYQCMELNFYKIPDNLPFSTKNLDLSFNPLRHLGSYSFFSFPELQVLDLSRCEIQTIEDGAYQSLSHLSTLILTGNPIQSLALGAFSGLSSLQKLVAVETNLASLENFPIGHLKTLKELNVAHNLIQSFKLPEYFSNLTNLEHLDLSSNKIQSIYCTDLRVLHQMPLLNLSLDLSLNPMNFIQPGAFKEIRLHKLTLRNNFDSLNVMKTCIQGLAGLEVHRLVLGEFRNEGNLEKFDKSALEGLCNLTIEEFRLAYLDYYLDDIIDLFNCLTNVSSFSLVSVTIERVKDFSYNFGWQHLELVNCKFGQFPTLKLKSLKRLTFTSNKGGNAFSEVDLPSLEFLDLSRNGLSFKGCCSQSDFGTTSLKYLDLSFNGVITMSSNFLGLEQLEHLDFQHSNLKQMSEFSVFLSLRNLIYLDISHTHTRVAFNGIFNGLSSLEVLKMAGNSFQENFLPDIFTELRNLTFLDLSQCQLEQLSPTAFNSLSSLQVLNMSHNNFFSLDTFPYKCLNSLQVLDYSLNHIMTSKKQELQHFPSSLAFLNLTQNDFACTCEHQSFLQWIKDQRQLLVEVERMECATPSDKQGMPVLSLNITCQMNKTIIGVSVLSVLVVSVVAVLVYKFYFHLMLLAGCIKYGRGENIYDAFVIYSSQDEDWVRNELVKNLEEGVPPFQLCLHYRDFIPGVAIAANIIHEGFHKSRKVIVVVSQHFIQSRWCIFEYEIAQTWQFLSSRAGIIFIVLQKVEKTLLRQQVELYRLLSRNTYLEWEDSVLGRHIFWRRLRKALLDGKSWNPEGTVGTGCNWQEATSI

Work on “recombinant Trichinella spiralis galectin with GST tag (GST-rTsgal) (natural protein)” yielded a TLR-4 protein expression level (Western blot) in Caco-2 cells incubated with rTsgal (50 µg/mL) for 48 h, increase against the PBS group [1] of 47.7%, a TLR-4 transcription level (qPCR) in Caco-2 cells incubated with rTsgal (50 µg/mL) for 48 h, increase against the PBS group [1] of 18.4% and an NF-κB p65 transcription level (qPCR) in Caco-2 cells treated with rTsgal for 48 h, increase against the PBS group [2] of 60.2%.
